Laboratory results: patent publication US8383581B2, “Short-chain peptides as parathyroid hormone (PTH) receptor agonist” (Cadila Healthcare Limited, priority 2009, dated 2013)
Where no end group is shown, it is not given here. [ ]: non-standard residue; d: D form. Arg(NO2) = N=C(NCCC[C@H](N)C(=O)O)N[N+](=O)[O-]; αMePhe(2,6-F2) = C[C@](N)(Cc1c(F)cccc1F)C(=O)O; αMePhe(2-F) = C[C@](N)(Cc1ccccc1F)C(=O)O; hArg = N=C(N)NCCCC[C@H](N)C(=O)O; hCit = NC(=O)NCCCC[C@H](N)C(=O)O; αMeF = C[C@](N)(Cc1ccccc1)C(=O)O; Cit = NC(=O)NCCC[C@H](N)C(=O)O; Nle = CCCC[C@H](N)C(=O)O; Orn = NCCC[C@H](N)C(=O)O; Ac5c = NC1(C(=O)O)CCCC1; Ac3c = NC1(C(=O)O)CC1; Aib = CC(C)(N)C(=O)O

Tests used:
[1] = Stability of peptides in human plasma; type: in vitro ADME; settings: human, plasma; for metabolised at 24 h, 2 μM: pH 7.8
Procedure: (§1) b) Stability of Peptides in Human Plasma, Simulated Gastric Fluid, Intestinal Fluid and Liver Microsomes (Ex-Vivo): Different short-chain peptides (final concentration 2 μM) were incubated with either pooled human plasma (7.5 μL) or simulated gastric fluid (pH 1.5; composition HCl, NaCl and Pepsin) or simulated intestinal fluid (pH 7.5) or human liver microsomes, for 0, 2, 4, 6, 12 and 24 h (37° C.; 50 mM triethanolamine-HCl buffer; pH 7.8). Concentrations of human plasma/simulated gastric fluid/simulated intestinal fluid/human liver microsomes were selected in preliminary experiments to provide degradation of approximately 50% of PTH(1-34) within 1 h, therefore allowing time-dependent degradation to be viewed over 24 h. Reactions were terminated by the addition of TFA/H2O ([…], 10% (v/v)). The reaction products were then applied to a Vydac C18 analytical column (4.6×250-mm) and the major degradation fragment separated from intact short-chain peptides. The column was equilibrated with TFA/H20, at a flow rate of 1 mL/min. Using 0.1% (v/v) TFA in 70% acetonitrile/H2O, the concentration of acetonitrile in the eluting solvent was raised from 0% to 28% over 10 min and from 28% to 42% over 30 min. The absorbance was monitored at 206 nm using UV detector and peaks were collected manually prior to ESI-MS analysis. Area under the curve was measured for test peptides and their metabolites and percentage degradation were calculated at each time point over a period of 24 h. Stability study results of selected peptides, in human plasma, simulated gastric fluid, intestinal fluid and liver microsomes (in vitro) are listed in Table 4.

[2] = Stability of peptides in simulated gastric fluid (pH 1.5; HCl, NaCl and Pepsin); type: in vitro ADME; settings: pH 1.5; for % degradation of peptides in 24 h when incubated with simulated gastric fluid: 2 μM; for half-life: simulated gi fluid
Procedure: as §1

[3] = Stability of peptides in simulated intestinal fluid (pH 7.5); type: in vitro ADME; settings: pH 7.5; for half-life: simulated gi fluid; for % degradation of peptides in 24 h when incubated with simulated intestinal fluid: 2 μM
Procedure: as §1

[4] = Stability of peptides in human liver microsomes; type: in vitro ADME; settings: human, microsomes; for % degradation of peptides in 24 h when incubated with liver microsomes: 2 μM, pH 7.8
Procedure: as §1

[5] = biological target: T1, rat PTH-1R (rat PTHR endogenously expressed on UMR-106 rat osteosarcoma cells) (rat, UniProt P25961 27-591); assay: cell-based or functional assay
T1 sequence (looked up): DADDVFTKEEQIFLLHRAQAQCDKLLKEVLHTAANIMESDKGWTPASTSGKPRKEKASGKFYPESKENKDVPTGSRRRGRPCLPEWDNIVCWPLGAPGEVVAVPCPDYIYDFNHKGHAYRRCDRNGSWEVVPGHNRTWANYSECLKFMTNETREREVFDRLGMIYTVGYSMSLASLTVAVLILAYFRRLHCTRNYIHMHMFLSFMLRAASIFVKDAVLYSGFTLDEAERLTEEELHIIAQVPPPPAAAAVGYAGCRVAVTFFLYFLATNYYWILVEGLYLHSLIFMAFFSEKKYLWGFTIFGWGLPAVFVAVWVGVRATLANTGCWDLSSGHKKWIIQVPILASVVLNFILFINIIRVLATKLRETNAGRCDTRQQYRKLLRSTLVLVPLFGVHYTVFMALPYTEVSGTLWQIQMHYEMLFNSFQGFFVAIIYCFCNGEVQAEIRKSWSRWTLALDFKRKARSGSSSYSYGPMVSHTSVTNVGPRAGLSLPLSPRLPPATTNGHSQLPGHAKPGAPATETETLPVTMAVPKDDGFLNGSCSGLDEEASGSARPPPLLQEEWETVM

CCCCC(C)(NC(=O)[C@H](CC(C)C)NC(=O)[C@H](CCC(N)=O)NC(=O)[C@@H](NC(=O)[C@H](CCC(=O)O)NC(=O)C(C)(C)NC(=O)[C@@H](NC(=O)C1(NC(=O)[C@@H](N)C(C)C)CCCC1)C(C)C)[C@@H](C)CC)C(=O)N[C@@H](Cc1c[nH]cn1)C(=O)N[C@@H](CCC(N)=O)C(=O)N[C@@H](CCCCNC(=N)N)C(=O)N[C@@H](C)C(=O)N[C@@H](CCCCNC(=N)N)C(=O)NC(Cc1ccc(-c2ccc(OC)cc2CC)cc1)C(=O)NC(C)(CCCc1ccccc1)C(N)=O (single isomer, unassigned) [Seq. ID. 925]
half-life (t1/2) in human plasma [1]: (9) h | metabolised at 24 h, 2 μM [1]: 78% | % degradation of peptides in 24 h when incubated with simulated gastric fluid [2]: 100% | half-life [2]: 30 min | half-life [3]: 30 min | % degradation of peptides in 24 h when incubated with simulated intestinal fluid [3]: 100% | half-life [4]: 30 min | % degradation of peptides in 24 h when incubated with liver microsomes [4]: 100%

CC[C@H](C)[C@H](NC(=O)[C@H](CCC(=O)O)NC(=O)C(C)(C)NC(=O)[C@@H](NC(=O)C1(NC(=O)[C@@H](N)C(C)C)CC1)C(C)C)C(=O)N[C@@H](CCC(N)=O)C(=O)N[C@@H](CC(C)C)C(=O)NC(C)(CCSC)C(=O)N[C@@H](Cc1c[nH]cn1)C(=O)N[C@@H](CCC(N)=O)C(=O)N[C@@H](CCCCNC(=N)N)C(=O)N[C@@H](C)C(=O)N[C@@H](CCCCNC(=N)N)C(=O)NC(C)(Cc1c[nH]c2ccccc12)C(=O)NC(C)(CCCc1ccccc1)C(N)=O (single isomer, unassigned) [Seq. ID. 950]
half-life [1]: > 1440 min | metabolised at 24 h, 2 μM [1]: 0% | % degradation of peptides in 24 h when incubated with simulated gastric fluid [2]: 00% | half-life [2]: > 1440 min | half-life [3]: > 1440 min | % degradation of peptides in 24 h when incubated with simulated intestinal fluid [3]: 00% | half-life (t1/2) in liver microsomes [4]: (5) h | % degradation of peptides in 24 h when incubated with liver microsomes [4]: 35%

[Aib]V[Ac5c]EIQ[αMePhe(2,6-F2)][Nle]HQ[hArg][Aib][Arg(NO2)][αMePhe(2-F)] [Seq. ID. 256]
cAMP released with respect to control, 1 nM peptide, UMR-106 cells [5]: 28 percent of control | cAMP released with respect to control, 10 nM peptide, UMR-106 cells [5]: 71 percent of control | cAMP released with respect to control, 100 nM peptide, UMR-106 cells [5]: 87 percent of control

[Aib]V[Aib]EIQ[αMePhe(2,6-F2)][Nle]HQ[hArg]A[Arg(NO2)][αMePhe(2,6-F2)] [Seq. ID. 271]
cAMP released with respect to control, 1 nM peptide, UMR-106 cells [5]: 46 percent of control | cAMP released with respect to control, 10 nM peptide, UMR-106 cells [5]: 108 percent of control | cAMP released with respect to control, 100 nM peptide, UMR-106 cells [5]: 116 percent of control

[Ac5c]V[Aib]EIQ[αMePhe(2-F)][Nle]HQ[Orn][Aib][Cit][αMePhe(2,6-F2)] [Seq. ID. 292]
cAMP released with respect to control, 1 nM peptide, UMR-106 cells [5]: 39 percent of control | cAMP released with respect to control, 10 nM peptide, UMR-106 cells [5]: 104 percent of control | cAMP released with respect to control, 100 nM peptide, UMR-106 cells [5]: 120 percent of control

[Ac5c]V[Aib]EIQ[αMePhe(2,6-F2)][Nle]HQ[Orn]A[Aib][αMePhe(2,6-F2)] [Seq. ID. 311]
cAMP released with respect to control, 1 nM peptide, UMR-106 cells [5]: 26 percent of control | cAMP released with respect to control, 10 nM peptide, UMR-106 cells [5]: 68 percent of control | cAMP released with respect to control, 100 nM peptide, UMR-106 cells [5]: 86 percent of control

[Ac3c]V[Aib]EIQL[Nle]HQ[hArg][Aib]K[αMeF] [Seq. ID. 15]
cAMP released with respect to control, 1 nM peptide, UMR-106 cells [5]: 28 percent of control | cAMP released with respect to control, 10 nM peptide, UMR-106 cells [5]: 78 percent of control | cAMP released with respect to control, 100 nM peptide, UMR-106 cells [5]: 99 percent of control

[Aib]V[Aib]EIQ[αMePhe(2,6-F2)][Nle]HQ[Orn]A[αMePhe(2,6-F2)][αMePhe(2,6-F2)] [Seq. ID. 325]
cAMP released with respect to control, 1 nM peptide, UMR-106 cells [5]: 38 percent of control | cAMP released with respect to control, 10 nM peptide, UMR-106 cells [5]: 98 percent of control | cAMP released with respect to control, 100 nM peptide, UMR-106 cells [5]: 116 percent of control

[Aib]V[Aib]EIQ[αMePhe(2-F)][Nle]HQ[Orn][Aib][Arg(NO2)][αMePhe(2-F)] [Seq. ID. 330]
cAMP released with respect to control, 1 nM peptide, UMR-106 cells [5]: 18 percent of control | cAMP released with respect to control, 10 nM peptide, UMR-106 cells [5]: 51 percent of control | cAMP released with respect to control, 100 nM peptide, UMR-106 cells [5]: 72 percent of control

[Aib]V[Aib]EIQ[αMePhe(2-F)][Nle]HQ[Cit][Aib][Cit][αMePhe(2-F)] [Seq. ID. 346]
cAMP released with respect to control, 1 nM peptide, UMR-106 cells [5]: 21 percent of control | cAMP released with respect to control, 10 nM peptide, UMR-106 cells [5]: 51 percent of control | cAMP released with respect to control, 100 nM peptide, UMR-106 cells [5]: 69 percent of control

[Ac5c]V[Aib]EIQ[αMePhe(2,6-F2)][Nle]HQ[Cit]A[Cit][αMePhe(2-F)] [Seq. ID. 351]
cAMP released with respect to control, 1 nM peptide, UMR-106 cells [5]: 38 percent of control | cAMP released with respect to control, 10 nM peptide, UMR-106 cells [5]: 79 percent of control | cAMP released with respect to control, 100 nM peptide, UMR-106 cells [5]: 119 percent of control

[Ac5c]V[Aib]EIQ[αMePhe(2-F)][Nle]HQ[Cit][Aib][Aib][αMePhe(2,6-F2)] [Seq. ID. 372]
cAMP released with respect to control, 1 nM peptide, UMR-106 cells [5]: 32 percent of control | cAMP released with respect to control, 10 nM peptide, UMR-106 cells [5]: 71 percent of control | cAMP released with respect to control, 100 nM peptide, UMR-106 cells [5]: 99 percent of control

[Aib]V[Aib]EIQ[αMePhe(2,6-F2)][Nle]HQ[Cit]A[Arg(NO2)][αMePhe(2-F)] [Seq. ID. 397]
cAMP released with respect to control, 1 nM peptide, UMR-106 cells [5]: 38 percent of control | cAMP released with respect to control, 10 nM peptide, UMR-106 cells [5]: 102 percent of control | cAMP released with respect to control, 100 nM peptide, UMR-106 cells [5]: 117 percent of control

[Aib]V[Aib]EIQ[αMePhe(2-F)][Nle]HQ[hCit][Aib][Cit][αMePhe(2,6-F2)] [Seq. ID. 418]
cAMP released with respect to control, 1 nM peptide, UMR-106 cells [5]: 29 percent of control | cAMP released with respect to control, 10 nM peptide, UMR-106 cells [5]: 52 percent of control | cAMP released with respect to control, 100 nM peptide, UMR-106 cells [5]: 69 percent of control

[Aib]V[Aib]EIQ[αMePhe(2,6-F2)][Nle]HQ[hCit]A[Aib][αMePhe(2-F)] [Seq. ID. 429]
cAMP released with respect to control, 1 nM peptide, UMR-106 cells [5]: 39 percent of control | cAMP released with respect to control, 10 nM peptide, UMR-106 cells [5]: 101 percent of control | cAMP released with respect to control, 100 nM peptide, UMR-106 cells [5]: 120 percent of control

[Ac5c]V[Aib]EIQ[αMePhe(2-F)][Nle]HQ[hCit][Aib][αMePhe(2,6-F2)][αMePhe(2-F)] [Seq. ID. 444]
cAMP released with respect to control, 1 nM peptide, UMR-106 cells [5]: 26 percent of control | cAMP released with respect to control, 10 nM peptide, UMR-106 cells [5]: 67 percent of control | cAMP released with respect to control, 100 nM peptide, UMR-106 cells [5]: 81 percent of control

[Aib]V[Aib]EIQ[αMePhe(2,6-F2)][Nle]HQ[hCit]A[Arg(NO2)][αMePhe(2-F)] [Seq. ID. 461]
cAMP released with respect to control, 1 nM peptide, UMR-106 cells [5]: 56 percent of control | cAMP released with respect to control, 10 nM peptide, UMR-106 cells [5]: 101 percent of control | cAMP released with respect to control, 100 nM peptide, UMR-106 cells [5]: 126 percent of control
